Measurements: patent US20250144228A1 (published 2025)

How the values were obtained:
[1] = biological target: T1, P. falciparum MSP-1 subunit p42 (plate-bound, isolated) (Plasmodium falciparum, UniProt Q8I0U8 1327-1699); assay: ELISA
T1 chain: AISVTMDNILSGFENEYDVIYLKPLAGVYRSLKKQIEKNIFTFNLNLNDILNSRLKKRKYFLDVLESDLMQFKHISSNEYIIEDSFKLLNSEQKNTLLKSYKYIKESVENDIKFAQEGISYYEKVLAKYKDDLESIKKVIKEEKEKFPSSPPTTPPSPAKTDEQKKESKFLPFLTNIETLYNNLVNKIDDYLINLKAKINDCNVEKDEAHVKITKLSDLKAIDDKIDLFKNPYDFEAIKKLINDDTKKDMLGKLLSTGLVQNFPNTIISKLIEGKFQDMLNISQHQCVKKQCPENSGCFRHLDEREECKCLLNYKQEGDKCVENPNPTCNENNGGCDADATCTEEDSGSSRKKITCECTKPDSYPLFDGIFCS

[2] = biological target: A/Wisconsin/629-D00015/2009 (H1N1)pdm09 (influenza A virus)
[3] = biological target: A/Hong Kong/8/1968 (H3N2) (influenza A virus)
[4] = biological target: a monoclonal mouse IgM, κ Isotype Ctrl (mouse); assay: ELISA
[5] = biological target: mouse polyclonal IgG (mouse); assay: ELISA
[6] = biological target: T2, mouse polyclonal IgA (mouse, UniProt P11911); assay: ELISA
T2 sequence (P11911 whole entry, looked up): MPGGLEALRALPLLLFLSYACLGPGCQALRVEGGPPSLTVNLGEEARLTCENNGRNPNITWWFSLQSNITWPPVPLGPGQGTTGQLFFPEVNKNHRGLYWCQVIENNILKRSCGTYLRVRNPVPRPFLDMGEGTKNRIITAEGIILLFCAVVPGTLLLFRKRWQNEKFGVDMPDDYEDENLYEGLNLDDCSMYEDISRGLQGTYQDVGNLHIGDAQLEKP

[7] = biological target: T3, P. falciparum MSP-1 subunit p83 (plate-bound, isolated) (Plasmodium falciparum, UniProt Q8I0U8 20-722); assay: ELISA
T3 chain: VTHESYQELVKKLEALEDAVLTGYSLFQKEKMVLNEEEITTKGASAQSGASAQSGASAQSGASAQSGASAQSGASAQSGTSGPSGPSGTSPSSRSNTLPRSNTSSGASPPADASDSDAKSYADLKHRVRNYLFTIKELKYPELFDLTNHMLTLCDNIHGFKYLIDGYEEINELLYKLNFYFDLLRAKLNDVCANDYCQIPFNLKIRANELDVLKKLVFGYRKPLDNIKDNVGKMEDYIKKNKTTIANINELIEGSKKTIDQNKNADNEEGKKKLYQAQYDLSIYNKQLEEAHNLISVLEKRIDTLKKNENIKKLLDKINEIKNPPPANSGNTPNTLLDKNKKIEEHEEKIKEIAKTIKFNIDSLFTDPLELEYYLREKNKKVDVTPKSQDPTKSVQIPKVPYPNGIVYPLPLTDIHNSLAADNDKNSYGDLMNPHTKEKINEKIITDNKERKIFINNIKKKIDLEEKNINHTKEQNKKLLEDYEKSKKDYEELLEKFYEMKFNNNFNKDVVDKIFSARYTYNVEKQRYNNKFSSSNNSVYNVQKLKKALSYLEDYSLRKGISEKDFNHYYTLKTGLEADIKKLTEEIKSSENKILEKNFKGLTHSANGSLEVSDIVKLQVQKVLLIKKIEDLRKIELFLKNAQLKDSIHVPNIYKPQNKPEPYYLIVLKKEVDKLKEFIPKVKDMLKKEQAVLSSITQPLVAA

[8] = biological target: mouse IgG2b (mouse); assay: ELISA
[9] = biological target: hemagglutinin (influenza A virus)
[10] = biological target: Influenza A virus - A/Hong Kong/8/1968 (H3N2) (influenza A virus)

B1: anti-p42 A6 VHH (P. falciparum MSP-1 specific) (VHH)
VHH: QVQLVESGGGLVQAGGSLRLSCAASARTFSYYGAAWFRQAPGKEREFVAAVSWNGDDTYYADSVKGRFTISRDNTKNTVSLQMNALKPEDTAVYYCEAAAYGRDWRQSANYVYWGQGTQVTVSS
Kd [1]: 1.96 nM

B2: VHHkappa-SD36-biotin (genetic fusion) (bispecific antibody)
chain: QVQLVESGGGWVQPGGSLRLSCAASGFTFSDTAMMWVRQAPGKGREWVAAIDTGGGYTYYADSVKGRFTISRDNAKNTLYLQMNSLKPEDTARYYCAKTYSGNYYSNYTVANYGTTGRGTLVTVSSAAAGGGGSGGGGSGGGGSEVQLVESGGGLVQAGGSLKLSCAASGRTYAMGWFRQAPGKEREFVAHINALGTRTYYSDSVKGRFTISRDNAKNTEYLEMNNLKPEDTAVYYCTAQGQWRAAPVAVAAEYEFWGQGTQVTVSSGGLPETGGHHHHHH
Kd [2]: 59.7 nM
Kd [3]: 1.8 nM

B3: VHHkappa (mouse)-SD36-biotin (bispecific antibody)
chain: B2 chain
Kd [4]: 0.0102 nM
Kd [5]: 8.3 pM
Kd [6]: 0.434 nM

B4: anti-p83 B4 VHH (P. falciparum MSP-1 specific) (VHH)
VHH: QLQLVESGGGLAQAGGSLRLSCAASGRTSSTKPMGWFRQAPGLEREFVASISWLGGSTLYSDSVKGRFTISRDNAKNTVYLQMNSLKSEDTAVYYCAGGTSAYSGRDSSRYEYWGQGTQVTVSS
Kd [7]: 1.81 nM

B5: anti-p42 G11 VHH (P. falciparum MSP-1 specific) (VHH)
VHH: QVQLVETGGGLVQAGGSLRLSCVVSGRSLILYGMGWFRQAPGKEREFVAGIVWNGGWTYYADSVKGRFTISRDTAKNTVYLQMNSLKPEDTAVYSCAAGPGDGRRRVAPAEYNYWGQGTQVTVSS
Kd [1]: 0.52 nM

B6: VHHkappa (mouse)-biotin (VHH)
VHH: QVQLVESGGGWVQPGGSLRLSCAASGFTFSDTAMMWVRQAPGKGREWVAAIDTGGGYTYYADSVKGRFTISRDNAKNTLYLQMNSLKPEDTARYYCAKTYSGNYYSNYTVANYGTTGRGTLVTVSS
Kd [4]: 0.0112 nM
Kd [5]: 7.2 pM
Kd [6]: 0.508 nM

B7: VHHkappa-biotin (VHH)
VHH: B6 VHH
Kd [8]: 2.1 nM

B8: SD36-biotin (VHH)
VHH: EVQLVESGGGLVQAGGSLKLSCAASGRTYAMGWFRQAPGKEREFVAHINALGTRTYYSDSVKGRFTISRDNAKNTEYLEMNNLKPEDTAVYYCTAQGQWRAAPVAVAAEYEFWGQGTQVTVSS
Kd [2]: 18.7 nM
Kd [3]: 1.3 nM

B9: VHHkappa-SD36-biotin-2 (bispecific antibody, V domains shown)
V domain 1: B6 VHH
V domain 2: B8 VHH
Kd [8]: 2.4 nM

B10: VHHkappa-SD36-biotin-1 (bispecific antibody, V domains shown)
V domain 1: B6 VHH
V domain 2: B8 VHH
Kd [8]: 2 nM

B11: VHHkappa-SD36 (bispecific antibody, V domains shown)
V domain 1: B6 VHH
V domain 2: B8 VHH
Kd [9]: 15.5 nM
Kd [10]: 0.6 nM
